Two substances from publication PMC10694592 can be followed below.

This assay concerns the target FITC-labeled 45-mer peptide derived from the C-terminal region of IKKβ. Nature of the assay: fluorescence polarisation; fluorescence anisotropy binding assay with an FITC-labeled 45-mer peptide of IKKβ and bacterially expressed full-length NEMO proteins; conditions not told here (refs 13, 26). Background: Fluorescence polarisation rises when a labelled molecule tumbles more slowly, as on binding a larger partner.

Chain of full-length WT NEMO (aa 1-419), bacterially expressed (Q9Y6K9 whole entry, the tested form may be a part): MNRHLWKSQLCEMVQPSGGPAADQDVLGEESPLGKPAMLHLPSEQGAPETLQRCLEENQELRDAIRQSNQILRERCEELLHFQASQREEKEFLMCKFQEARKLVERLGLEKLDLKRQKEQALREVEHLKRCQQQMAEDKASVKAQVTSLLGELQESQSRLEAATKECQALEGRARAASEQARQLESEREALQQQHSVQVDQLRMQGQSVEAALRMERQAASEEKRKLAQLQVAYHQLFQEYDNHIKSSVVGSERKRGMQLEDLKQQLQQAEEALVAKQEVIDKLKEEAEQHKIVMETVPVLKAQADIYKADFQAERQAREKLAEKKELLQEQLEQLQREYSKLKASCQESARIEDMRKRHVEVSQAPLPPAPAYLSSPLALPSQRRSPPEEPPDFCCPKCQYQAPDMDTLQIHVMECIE

On to “OPTN-IVD-NEMO (aa 1-419), bacterially expressed (from UniProt Q9Y6K9 1-419) (natural protein)”, for which the Kd (usually the equilibrium constant for the complex coming apart) was 33 nM.

With “full-length WT NEMO (aa 1-419), bacterially expressed (from UniProt Q9Y6K9 1-419) (natural protein)”, the Kd is 4.7 nM.
